Results: US20180171001A1
Positions count from the first letter of the chain named.

B1: γ59κ5 (antibody, V domains shown)
VH: QIHLVQSGTEVKKPGSSVTVSCKAYGVNTFGLYAVNWVRQAPGQGLEYIGQIWRWKSSASHHFRGRVLISAVDLTGSSPPISSLEIKNVTSDDTAVYFCTTTSTYDEWSDLHHDGVMAFSSWGQGTLISVSA
VL: DIQMTQSPSTLSASTGDTVRISCRASQSITGNWVAWYQQRPGKAPRLLIYRGAALLGGVPSRFRGSAAGTDFTLTIGNLQAEDFGTFYCQQYDTYPGTFGQGTKVEVKR
B2: γ46κ11 (antibody, V domains shown)
VH: B1 VH with E107K, D110G, M117V
VL: B1 VL with T15V, D17G, N32G, V34L, Q38H, A53S, A54R, R64S, G77A
B3: γ44κ11 (antibody, V domains shown)
VH: B1 VH with G26E, G45S, Y105H, E107K, D110G
VL: B1 VL with T15V, D17G, N32G, V34L, Q38H, A53S, A54R, R64S, G77A
B4: γ3κ11 (antibody, V domains shown)
VH: QIHLVQSGTEVKKPGSSVTVSCKAYGVNTFGLYAVSWVRQAPGQRLEYIGQIRRWKSSASHHFRGRVTVSAVDPTGSSPPISSLEIRDLTTDDTAVYFCTTTSTSDYWSGLHNERGTAFSSWGQGTLISVSA
VL: B1 VL with T15V, D17G, N32G, V34L, Q38H, A53S, A54R, R64S, G77A
B5: γ20κ11 (antibody, V domains shown)
VH: B1 VH with T19A, G45S, H62D, L68I, V89L, T101A, Y105P, E107Y, D110G
VL: B1 VL with T15V, D17G, N32G, V34L, Q38H, A53S, A54R, R64S, G77A
B6: γ52κ11 (antibody, V domains shown)
VH: B1 VH with G45S, V89L, E107R, D110G
VL: B1 VL with T15V, D17G, N32G, V34L, Q38H, A53S, A54R, R64S, G77A
B7: γ23κ11 (antibody, V domains shown)
VH: B1 VH with G45S, L68I, V89L, Y105S, E107Y, D110G
VL: B1 VL with T15V, D17G, N32G, V34L, Q38H, A53S, A54R, R64S, G77A
B8: γ15κ11 (antibody, V domains shown)
VH: B1 VH with G45S, L68I, V89L, T102A, E107K, D110G
VL: B1 VL with T15V, D17G, N32G, V34L, Q38H, A53S, A54R, R64S, G77A
B9: γ59κ11 (antibody, V domains shown)
VH: B1 VH
VL: B1 VL with T15V, D17G, N32G, V34L, Q38H, A53S, A54R, R64S, G77A
B10: γ22κ11 (antibody, V domains shown)
VH: B1 VH with G45S, S77P, V89L, E107K, D110G
VL: B1 VL with T15V, D17G, N32G, V34L, Q38H, A53S, A54R, R64S, G77A

Target: Env of HIV-1 strain REJO4541.67 (HIV-1)
Assay: cell-based or functional assay

| Binder | neutralization IC50 [µg/mL] |
| --- | --- |
| B1 | 4.67 |
| B2 | > 15 |
| B3 | > 15 |
| B4 | 0.091 |
| B5 | > 15 |
| B6 | 3.47 |
| B7 | 0.14 |
| B8 | > 15 |
| B9 | 1.57 |
| B10 | > 15 |

Target: Env of HIV-1 strain X1254_c3 (HIV-1)
Assay: cell-based or functional assay

| Binder | neutralization IC50 [µg/mL] |
| --- | --- |
| B1 | 9.42 |
| B2 | 5.68 |
| B3 | > 15 |
| B4 | 2.31 |
| B5 | 7.5 |
| B6 | 2.42 |
| B7 | 1.7 |
| B8 | 13.7 |
| B9 | 4.67 |
| B10 | > 15 |

Target: Env of HIV-1 strain YU2.DG (HIV-1)
Assay: cell-based or functional assay

| Binder | neutralization IC50 [µg/mL] |
| --- | --- |
| B1 | 7.28 |
| B2 | 2.1 |
| B3 | > 15 |
| B4 | 0.276 |
| B5 | > 15 |
| B6 | 0.298 |
| B7 | 0.34 |
| B8 | 4.12 |
| B9 | 6.91 |
| B10 | > 15 |

Target: Env of HIV-1 strain 251-18 (HIV-1)
Assay: cell-based or functional assay

| Binder | neutralization IC50 [µg/mL] |
| --- | --- |
| B1 | 6.96 |
| B2 | > 15 |
| B3 | > 15 |
| B4 | > 15 |
| B5 | > 15 |
| B6 | 0.647 |
| B7 | 2.49 |
| B8 | > 15 |
| B9 | > 15 |
| B10 | > 15 |

Target: Env of HIV-1 strain 3365.v2.c20 (HIV-1)
Assay: cell-based or functional assay

| Binder | neutralization IC50 [µg/mL] |
| --- | --- |
| B1 | > 15 |
| B2 | > 15 |
| B3 | > 15 |
| B4 | > 15 |
| B5 | > 15 |
| B6 | > 15 |
| B7 | > 15 |
| B8 | > 15 |
| B9 | > 15 |
| B10 | > 15 |

Target: Env of MuLV
Assay: cell-based or functional assay

| Binder | neutralization IC50 [µg/mL] |
| --- | --- |
| B1 | > 30 |
| B2 | > 30 |
| B3 | > 19 |
| B4 | > 30 |
| B5 | > 30 |
| B6 | > 30 |
| B7 | > 30 |
| B8 | > 30 |
| B9 | > 30 |
| B10 | > 30 |

Target: Env of HIV-1 strain 250-4 (HIV-1)
Assay: cell-based or functional assay

| Binder | neutralization IC50 [µg/mL] |
| --- | --- |
| B1 | > 15 |
| B2 | > 15 |
| B3 | > 15 |
| B4 | > 15 |
| B5 | > 15 |
| B6 | > 15 |
| B7 | > 15 |
| B8 | > 15 |
| B9 | > 15 |
| B10 | > 15 |

Target: Env of HIV-1 strain H086.8 (HIV-1)
Assay: cell-based or functional assay

| Binder | neutralization IC50 [µg/mL] |
| --- | --- |
| B1 | > 15 |
| B2 | > 15 |
| B3 | > 15 |
| B4 | 0.778 |
| B5 | > 15 |
| B6 | 1.64 |
| B7 | > 15 |
| B8 | > 15 |
| B9 | > 15 |
| B10 | > 15 |

Target: Env of HIV-1 strain 3415.v1.c1 (HIV-1)
Assay: cell-based or functional assay

| Binder | neutralization IC50 [µg/mL] |
| --- | --- |
| B1 | > 15 |
| B2 | > 15 |
| B3 | > 15 |
| B4 | > 15 |
| B5 | > 15 |
| B6 | > 15 |
| B7 | > 15 |
| B8 | > 15 |
| B9 | > 15 |
| B10 | > 15 |

Target: Env of HIV-1 strain ZM109F.PB4 (HIV-1)
Assay: cell-based or functional assay

| Binder | neutralization IC50 [µg/mL] |
| --- | --- |
| B1 | > 15 |
| B2 | > 15 |
| B3 | > 15 |
| B4 | > 15 |
| B5 | > 15 |
| B6 | > 15 |
| B7 | > 15 |
| B8 | > 15 |
| B9 | > 15 |
| B10 | > 15 |

Target: Env of HIV-1 strain ZM53M.PB12 (HIV-1)
Assay: cell-based or functional assay

| Binder | neutralization IC50 [µg/mL] |
| --- | --- |
| B1 | 24.1 |
| B2 | > 15 |
| B3 | > 15 |
| B4 | > 15 |
| B5 | > 15 |
| B6 | > 15 |
| B7 | > 15 |
| B8 | > 15 |
| B9 | > 15 |
| B10 | > 15 |

Target: Env of HIV-1 strain 3016.v5.c45 (HIV-1)
Assay: cell-based or functional assay

| Binder | neutralization IC50 [µg/mL] |
| --- | --- |
| B1 | > 15 |
| B2 | 1.93 |
| B3 | > 15 |
| B4 | 0.145 |
| B5 | > 15 |
| B6 | 0.161 |
| B7 | 0.159 |
| B8 | 1.32 |
| B9 | > 15 |
| B10 | > 15 |

Target: Env of HIV-1 strain Du172.17 (HIV-1)
Assay: cell-based or functional assay

| Binder | neutralization IC50 [µg/mL] |
| --- | --- |
| B1 | > 15 |
| B2 | > 15 |
| B3 | > 15 |
| B4 | > 15 |
| B5 | > 15 |
| B6 | > 15 |
| B7 | 11.3 |
| B8 | > 15 |
| B9 | > 15 |
| B10 | > 15 |

Target: Env of HIV-1 strain R1166.c1 (HIV-1)
Assay: cell-based or functional assay

| Binder | neutralization IC50 [µg/mL] |
| --- | --- |
| B1 | 28.2 |
| B2 | 3.39 |
| B3 | > 15 |
| B4 | 1.79 |
| B5 | 20.2 |
| B6 | 1.16 |
| B7 | 1.61 |
| B8 | 9.81 |
| B9 | 12.6 |
| B10 | > 15 |

Target: Env of HIV-1 strain 231965.c1 (HIV-1)
Assay: cell-based or functional assay

| Binder | neutralization IC50 [µg/mL] |
| --- | --- |
| B1 | > 15 |
| B2 | 2.95 |
| B3 | > 15 |
| B4 | 0.455 |
| B5 | > 15 |
| B6 | 0.298 |
| B7 | 0.543 |
| B8 | 5.1 |
| B9 | > 15 |
| B10 | > 15 |

Target: Env of HIV-1 strain PVO.4 (HIV-1)
Assay: cell-based or functional assay

| Binder | neutralization IC50 [µg/mL] |
| --- | --- |
| B1 | > 15 |
| B2 | 2.92 |
| B3 | > 15 |
| B4 | 0.074 |
| B5 | > 15 |
| B6 | 0.103 |
| B7 | 0.103 |
| B8 | 6.7 |
| B9 | > 15 |
| B10 | > 15 |
